Where two headings read alike, the source gives them in different places. Blank lines part the entries; values can stand above or below the molecule they belong to.
Experiments:
hTAS1R1/rTAS1R3 = target: T1, hTAS1R1/rTAS1R3 (UniProt Q7RTX1+Q923K1); assay: Calcium assay (GCaMP6s, Gα15i2) in transiently transfected HEK293T/17 cells; type: cell-based, human, rat
T1 construct: UniProtKB number Q7RTX1–1); The cDNA coding region of rTAS1R3 was synthesized with optimized-codon usage for human expression; expressed in transfected cells; host or cells: HEK293T/17 (ATCC CRL-11268)
T1 sequence (Q7RTX1 21-841): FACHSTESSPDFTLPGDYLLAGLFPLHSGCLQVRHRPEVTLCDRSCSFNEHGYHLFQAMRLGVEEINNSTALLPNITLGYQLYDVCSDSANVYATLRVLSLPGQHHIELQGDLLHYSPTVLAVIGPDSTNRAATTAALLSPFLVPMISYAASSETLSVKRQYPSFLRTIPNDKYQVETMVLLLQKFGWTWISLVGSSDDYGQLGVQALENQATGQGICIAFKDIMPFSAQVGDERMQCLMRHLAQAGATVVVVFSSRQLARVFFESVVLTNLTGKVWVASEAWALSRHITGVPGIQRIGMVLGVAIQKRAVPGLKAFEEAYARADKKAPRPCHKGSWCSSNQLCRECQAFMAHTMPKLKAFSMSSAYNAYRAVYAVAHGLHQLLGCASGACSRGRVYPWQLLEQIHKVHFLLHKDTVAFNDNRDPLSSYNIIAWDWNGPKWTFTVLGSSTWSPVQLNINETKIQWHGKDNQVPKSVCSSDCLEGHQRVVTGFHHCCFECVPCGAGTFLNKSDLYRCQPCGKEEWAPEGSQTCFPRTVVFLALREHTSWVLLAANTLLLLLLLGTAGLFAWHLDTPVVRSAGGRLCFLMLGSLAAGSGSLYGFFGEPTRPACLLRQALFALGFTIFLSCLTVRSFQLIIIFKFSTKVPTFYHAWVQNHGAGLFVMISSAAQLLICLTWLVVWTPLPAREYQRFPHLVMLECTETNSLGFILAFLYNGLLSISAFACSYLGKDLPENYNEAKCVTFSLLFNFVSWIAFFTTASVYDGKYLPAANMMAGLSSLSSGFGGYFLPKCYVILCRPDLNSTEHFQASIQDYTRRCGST
T1 sequence (Q923K1 21-858): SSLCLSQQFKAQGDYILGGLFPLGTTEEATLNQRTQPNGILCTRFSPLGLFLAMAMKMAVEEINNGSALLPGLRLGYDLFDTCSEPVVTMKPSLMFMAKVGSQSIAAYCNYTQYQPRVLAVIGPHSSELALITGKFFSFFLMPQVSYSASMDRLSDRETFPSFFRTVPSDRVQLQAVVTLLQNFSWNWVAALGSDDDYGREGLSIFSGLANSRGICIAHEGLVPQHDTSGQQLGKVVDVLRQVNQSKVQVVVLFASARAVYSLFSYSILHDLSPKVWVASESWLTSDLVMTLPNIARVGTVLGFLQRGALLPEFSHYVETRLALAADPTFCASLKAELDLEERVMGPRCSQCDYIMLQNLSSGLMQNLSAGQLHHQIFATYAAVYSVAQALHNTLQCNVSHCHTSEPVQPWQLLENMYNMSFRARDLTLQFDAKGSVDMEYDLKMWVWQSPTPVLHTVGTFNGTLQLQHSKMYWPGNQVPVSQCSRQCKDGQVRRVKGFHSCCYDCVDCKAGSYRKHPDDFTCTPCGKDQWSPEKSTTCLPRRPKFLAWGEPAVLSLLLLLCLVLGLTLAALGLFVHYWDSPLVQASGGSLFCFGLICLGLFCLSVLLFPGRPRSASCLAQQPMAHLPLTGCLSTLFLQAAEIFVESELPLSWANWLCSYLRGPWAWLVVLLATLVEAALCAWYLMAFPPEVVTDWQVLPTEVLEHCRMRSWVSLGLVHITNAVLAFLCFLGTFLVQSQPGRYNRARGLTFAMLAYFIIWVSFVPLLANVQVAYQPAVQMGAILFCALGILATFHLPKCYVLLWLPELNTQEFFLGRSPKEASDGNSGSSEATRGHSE
Experimental: To this end, hTAS1R1/rTAS1R3 and the chimeric G protein Gα15i2 were transiently expressed in HEK293T cells. Cellular responses were assessed via calcium imaging using a fluorescent protein calcium biosensor (GCaMP6s) and compared with those of mock-transfected cells.

umami perception = details: ref Shigemura et al., 2009, cited from earlier work
[1] = target: hTAS1R1(A170W)/rTAS1R3 (human | rat) (UniProt Q7RTX1)
[2] = target: hTAS1R1(A302W)/rTAS1R3 (human | rat) (UniProt Q7RTX1)
[3] = target: hTAS1R1(D192A)/rTAS1R3 (human | rat) (UniProt Q7RTX1)
[4] = target: hTAS1R1(H308A)/rTAS1R3 (human | rat) (UniProt Q7RTX1)
[5] = target: hTAS1R1(H71A)/rTAS1R3 (human | rat) (UniProt Q7RTX1)
[6] = target: hTAS1R1(H71L)/rTAS1R3 (human | rat) (UniProt Q7RTX1)
[7] = target: hTAS1R1(L223A)/rTAS1R3 (human | rat) (UniProt Q7RTX1)
[8] = target: hTAS1R1(Q278A)/rTAS1R3 (human | rat) (UniProt Q7RTX1)
[9] = target: hTAS1R1(Q278K)/rTAS1R3 (human | rat) (UniProt Q7RTX1)
[10] = target: hTAS1R1(Q278Y)/rTAS1R3 (human | rat) (UniProt Q7RTX1)
[11] = target: hTAS1R1(R151A)/rTAS1R3 (human | rat) (UniProt Q7RTX1)
[12] = target: hTAS1R1(R277A)/rTAS1R3 (human | rat) (UniProt Q7RTX1)
[13] = target: hTAS1R1/rTAS1R3 umami taste receptor (wild type) (human | rat) (UniProt Q7RTX1)
[14] = target: hTAS1R1/rTAS1R3 umami taste receptor (wild type) (human | rat) (UniProt Q7RTX1); remark: listed apart in the source
[15] = target: hTAS1R2/hTAS1R3 sweet taste receptor (human) (UniProt Q8TE23)
[16] = target: hTAS1R2/rTAS1R3 sweet taste receptor (human | rat) (UniProt Q8TE23)
[17] = target: hTAS1R1 subunit expressed alone (human) (UniProt Q7RTX1)

Chain of hTAS1R2/hTAS1R3 sweet taste receptor (human) (Q8TE23 20-839, chain 1 of 2): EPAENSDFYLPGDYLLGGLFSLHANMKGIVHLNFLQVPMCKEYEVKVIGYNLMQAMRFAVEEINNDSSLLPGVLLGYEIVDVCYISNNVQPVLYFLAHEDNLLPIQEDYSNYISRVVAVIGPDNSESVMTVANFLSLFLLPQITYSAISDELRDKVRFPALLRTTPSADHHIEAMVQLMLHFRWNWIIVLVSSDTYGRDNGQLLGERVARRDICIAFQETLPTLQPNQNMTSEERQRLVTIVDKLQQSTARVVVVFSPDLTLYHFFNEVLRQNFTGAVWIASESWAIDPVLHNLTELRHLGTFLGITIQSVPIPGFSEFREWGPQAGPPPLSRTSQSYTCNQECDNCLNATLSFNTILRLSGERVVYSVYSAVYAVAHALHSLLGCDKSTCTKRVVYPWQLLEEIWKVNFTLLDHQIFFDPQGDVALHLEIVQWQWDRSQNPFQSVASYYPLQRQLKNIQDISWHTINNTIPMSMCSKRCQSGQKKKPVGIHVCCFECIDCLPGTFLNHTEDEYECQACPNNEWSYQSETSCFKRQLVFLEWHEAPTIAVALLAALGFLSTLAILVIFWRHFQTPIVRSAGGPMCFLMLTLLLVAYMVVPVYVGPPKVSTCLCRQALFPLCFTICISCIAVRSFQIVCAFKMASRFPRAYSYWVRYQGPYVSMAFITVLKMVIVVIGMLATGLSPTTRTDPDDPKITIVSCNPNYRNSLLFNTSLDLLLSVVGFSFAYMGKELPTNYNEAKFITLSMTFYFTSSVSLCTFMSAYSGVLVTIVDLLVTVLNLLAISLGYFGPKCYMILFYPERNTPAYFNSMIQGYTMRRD
Chain of hTAS1R2/hTAS1R3 sweet taste receptor (human) (Q7RTX0 21-852, chain 2 of 2, further chain): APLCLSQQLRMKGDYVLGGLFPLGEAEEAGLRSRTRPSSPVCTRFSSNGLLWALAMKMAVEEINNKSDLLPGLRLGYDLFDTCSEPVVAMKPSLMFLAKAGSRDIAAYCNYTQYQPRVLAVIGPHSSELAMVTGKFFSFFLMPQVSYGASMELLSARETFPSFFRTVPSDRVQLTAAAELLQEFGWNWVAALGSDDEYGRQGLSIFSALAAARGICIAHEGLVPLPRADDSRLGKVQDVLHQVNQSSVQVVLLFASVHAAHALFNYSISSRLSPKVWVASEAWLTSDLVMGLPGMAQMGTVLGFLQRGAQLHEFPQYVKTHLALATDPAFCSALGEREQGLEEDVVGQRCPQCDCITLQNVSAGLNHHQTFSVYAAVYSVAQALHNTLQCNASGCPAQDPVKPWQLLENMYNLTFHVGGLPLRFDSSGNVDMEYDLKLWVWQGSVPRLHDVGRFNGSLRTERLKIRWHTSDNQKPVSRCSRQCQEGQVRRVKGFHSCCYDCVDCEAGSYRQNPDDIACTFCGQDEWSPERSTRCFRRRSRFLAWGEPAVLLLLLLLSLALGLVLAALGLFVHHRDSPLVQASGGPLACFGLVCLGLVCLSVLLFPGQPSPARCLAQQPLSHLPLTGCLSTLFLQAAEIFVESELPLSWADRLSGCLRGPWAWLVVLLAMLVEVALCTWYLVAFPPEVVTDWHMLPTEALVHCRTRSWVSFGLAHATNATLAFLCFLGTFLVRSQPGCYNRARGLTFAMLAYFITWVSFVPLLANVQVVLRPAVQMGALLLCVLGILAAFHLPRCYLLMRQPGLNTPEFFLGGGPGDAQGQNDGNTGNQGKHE
Chain of hTAS1R2/rTAS1R3 sweet taste receptor (human | rat) (Q8TE23 20-839): as the sequence (Q8TE23 20-839, chain 1 of 2) above

- effect of the added 5′-ribonucleotide on the response to GSH (hTAS1R1/rTAS1R3; Fig. 6C–D): did not significantly increase
- activation of the receptor (hTAS1R1/rTAS1R3; compound alone): did not activate
Molecule: Nc1nc2c(ncn2[C@@H]2O[C@H](COP(=O)(O)O)[C@@H](O)[C@H]2O)c(=O)[nH]1 [GMP, guanosine 5′-monophosphate, reference compound]

- EC50 of GSH, calcium response of transfected HEK293 cells [1]: 5.29 mM
- EC50 of GSH, calcium response of transfected HEK293 cells [2]: 5.32 mM
- EC50 of GSH, calcium response of transfected HEK293 cells [3]: 3.25 mM
- EC50 of GSH, calcium response of transfected HEK293 cells [4]: 3.25 mM
- EC50 of GSH, calcium response of transfected HEK293 cells [5]: 2.03 mM
- EC50 of GSH, calcium response of transfected HEK293 cells [6]: 2.27 mM
- EC50 of GSH, calcium response of transfected HEK293 cells [7]: 2.32 mM
- EC50 of GSH, calcium response of transfected HEK293 cells [8]: 3.42 mM
- EC50 of GSH, calcium response of transfected HEK293 cells [9]: 5.66 mM
- EC50 of GSH, calcium response of transfected HEK293 cells [10]: 3.96 mM
- EC50 of GSH, calcium response of transfected HEK293 cells [11]: 2.59 mM
- EC50 of GSH, calcium response of transfected HEK293 cells [12]: 1.84 mM
- EC50 of GSH, calcium response of transfected HEK293 cells (mutant series) [13]: 2.52 mM
- EC50 of GSH, calcium response (GCaMP6s fluorescence) of transfected HEK293T cells [14]: 2.15 mM
- EC50 of GSH, calcium response of cells expressing the sweet taste receptor [15]: 0.591 mM
- EC50 of GSH, calcium response of cells expressing the sweet taste receptor [16]: 4.06 mM
- EC50 of GSH in the presence of 0.1 μM S807, calcium response of HEK293 cells expressing hTAS1R1 alone [17]: 0.281 mM
Molecule: Reduced L-glutathione (γ-L-glutamyl-L-cysteinyl-glycine) (peptide)

- EC50 of Glu-Cys, calcium response (GCaMP6s fluorescence) of transfected HEK293T cells [14]: 3.2 mM
Molecule: γ-L-Glutamyl-L-cysteine (peptide)

Continued, molecule first:

Molecule: N[C@@H](CCC(=O)N[C@@H](CS)C(=O)O)C(=O)O [Glu-Cys, γ-L-Glutamyl-L-cysteine]
- EC50 (hTAS1R1/rTAS1R3; agonist alone, Fig. 1, Fig. S2): 3.2 ± 1.54 mM
- max ∆F/F0 (hTAS1R1/rTAS1R3; agonist alone, Fig. 1, Fig. S2): 0.42 ± 0.07

Molecule: N[C@@H](CCC(=O)O)C(=O)[O-].[Na+] [MSG, monosodium glutamate]
- sensory recognition threshold (umami perception; MSG alone): 7.66 mM
- sensory recognition threshold (umami perception; in the presence of 0.05 mM IMP): 0.20 mM
